This data set deals with CA125 (native antigen) (human, UniProt Q8WXI7 1-14451). The data set is described as follows: nitrocellulose membrane binding, elution and nanodrop quantification; CA125 20 U/mL immobilized; 1 mM Mg2+ in binding buffer; SELEX binding buffer 10 mM PBS, 1 mM MgCl2, 0.01% herring sperm DNA, 25 C; KD in binding buffer (composition not restated), 2 h at RT; pH not stated. The note with it: protein: native.

B1: Apt 2.43 (ssDNA)
DNA: TAGGGAAGAGAAGGACATATGATGATCAACAACACAAGGGGGGGGGTATCTAGTTGACTAGTACATGACCACTTGA
Usually Kd stands for the constant that tells how readily two partners part at equilibrium. High values mean a looser complex, low ones a tighter complex. As for B1, the affinity, expressed as Kd, was 239 nM.

B2: Apt 2.26 (ssDNA)
DNA: TAGGGAAGAGAAGGACATATGATTTTAGGGAAGAGAAGGACTTTTATGCCGCCTTGACTAGTACATGACCACTTGA
For B2, the dissociation constant Kd amounted to 166 nM. The Kd values of the last two molecules are within 1.5-fold of each other.

Source of the values: paper PMC7242751, “Novel ssDNA Ligand Against Ovarian Cancer Biomarker CA125 With Promising Diagnostic Potential”.
